Assay results as given in publication PMC8524200, “Structural studies of codeinone reductase reveal novel insights into aldo-keto reductase function in benzylisoquinoline alkaloid biosynthesis” (The Journal of Biological Chemistry, 2021).

Target: the molecule itself
Assay: SEC; Superdex 200 (2.4 ml), 25 mM Tris-HCl pH 7.5, 150 mM KCl, 0.5 mM EDTA; COR1.3 0.5 mg/ml diluted in running buffer and incubated overnight at room temperature (oxidizing conditions); also run with 1 mM DTT in the buffer (reducing conditions: dimer destabilized)

B1: codeinone reductase COR1.3 isoform (enzyme, Papaver somniferum)
chain: MESNGVPMITLSSGIRMPALGMGTAETMVKGTEREKLAFLKAIEVGYRHFDTAAAYQSEECLGEAIAEALQLGLIKSRDELFITSKLWCADAHADLVLPALQNSLRNLKLDYLDLYLIHHPVSLKPGKFVNEIPKDHILPMDYKSVWAAMEECQTLGFTRAIGVCNFSCKKLQELMAAAKIPPVVNQVEMSPTLHQKNLREYCKANNIMITAHSVLGAICAPWGSNAVMDSKVLHQIAVARGKSVAQVSMRWVYQQGASLVVKSFNEGRMKENLKIFDWELTAENMEKISEIPQSRTSSADFLLSPTGPFKTEEEFWDEKD
modifications: intermolecular disulfide bond between Cys-220 of each protomer
notes: codeinone reductase isoform COR1.3, Papaver somniferum (AAF13738; Q9SQ68.1); The methods for size-exclusion chromatography say only 'purified COR1.3'; also called apo-COR
stoichiometry N: 2
